We go through 15 compounds from patent publication US20150258217A1, “Methods of Synthesizing and Using Peg-Like Fluorochromes” (THE GENERAL HOSPITAL CORPORATION, priority 2012, published 2015).

The nature of data set [1]: PN and peptide size (volume, diameter) by FPLC gel filtration (Superdex 200, globular protein standards). The data set is classed as physicochemical. The following applies: for Molecular Volume: Table 3C, proposed Example 4 compounds; for diameter: FPLC gel filtration; for Volume FPLC / Volume FPLC (diameter): Table 5; for Volume FPLC: globular protein equivalent molecular weight; for Molecular Volume FPLC: Table 3B, dipeptides; for Volume FPLC (diameter): converted from globular protein equivalent MW. As to the method: DOTA-Lys-Cys(IR783)-NH2 is then dissolved in DMSO, with 2 equivalents of an NHS ester of PEG and 6 equivalents of DIPEA. The reaction was at room temperature for 5 days. Product was purified by reverse phase HPLC separation. Product molecular weight was by matrix-assisted laser desorption ionization time-of-flight mass spectrometry (MALDI-TOF MS), with product molecular volume by size exclusion FPLC using globular protein standards (GE Healthcare life science AKTApurifier 10).
The mass spec of low molecular weights (MW) were obtained by MS-ESI Micromass (Waters) and high MW molecules were determined through MALDI-TOF analyses at the Tufts University Core Facility. RP-HPLC (Varian ProStar detector and delivery modules) employed an eluant A (0.1% TFA/water) and eluant B (0.1% TFA and 9.9% water in acetonitrile). Probe size (volume) was determined by FPLC using an ÄKTA Purifier 10 and Superdex™ 200 10/300GL column (GE Healthcare) with a running buffer of 0.05 M sodium phosphate, 0.15 M NaCl (0.1% Tween, pH 7.2) and flow rate of 0.8 ml/min. Standards (GE Healthcare) were Ferritin, Ribonuclease A, Carbonic Anhydrase, and Conalbumin and Blue Dextran 2000. To obtain probe volumes, Mr (apparent molecular weight based on size exclusion retention) was plotted versus Kav. Kav=(Ve−Vo)/(Vt−Vo), Vt=total volume, Ve=elution volume, Vo=void volume.
The column was calibrated with globular protein standards, and globular protein equivalent molecular weights (in kDa) were obtained (Table 5, column 5). These were converted to PN diameters in nm using the relationship: Radius in nm=[…] where M is the molecular weight of a globular protein expressed in daltons (see Erickson, “Size and Shape of Protein Molecules at the Nanometer Level Determined by Sedimentation, Gel Filtration, and Electron Microscopy”, Biological Procedures Online 2009, 11(1): 32-50). PN's diameters ranged from 3.0 to 11.8 nm (see FIG. 23a). Using PEG's of 5 kDa and 30 kDa, selected for their low polydispersity, PN's were synthesized using IR-783, Cy3 and Fluorescein (see FIG. 22a) and their sizes determined (see FIGS. 23a, 23b, 23c). With the 5 kDa PEG and these three fluorochromes (see the magenta chromatograms in FIGS. 22a, 23b and 23c) PN diameters were 4.3 nm. With the 30 kDa PEG and these three fluorochromes (blue chromatograms, 23a, 23b, 23c), PN diameters were now 10.0 nm. For reference, the diameter of a 67 kDa albumin determined by this method was 5.4 nm.
Background: SEC sorts molecules by how far they enter the pores of the column.

Data set [2] is described as follows: Quantum yield determination. The data set is classed as physicochemical. Particulars: for Quant. Yield: Table 5, in PBS. As for the experimental part:
Quantum yields were determined as described in Demas et al., “Measurement of photoluminescence quantum yields. Review”, Journal of Physical Chemistry 75, 991-1024 (1971), and Shao et al., “Facile Synthesis of Monofunctional Pentamethine Carbocyanine Fluorophores. Dyes and pigments: an international journal 90, 119-122 (2011). For IR-783 a reference quantum yield of 0.043 was used (see Li et al., “Synthesis and characterization of glucosamine-bound near-infrared probes for optical imaging”, Organic letters 8, 3623-3626, 2006); for fluorescein a reference quantum yield was […] (see Sjoback et al., “Absorption and florescence properties of fluorescein”, Spectrohimica Acta Part A 51, L7-L21, 1995). For Cy3 a reference quantum yield of 0.31 was used (Luminprobe Inc). For PN(783)'s, excitation was at 730 nm and emission spectra were recorded from 765 nm to 870 nm in PBS and maximum emission used. For PN(545)'s, excitation was at 515 nm and emission spectra were recorded from 538 nm to 700 nm in PBS and maximum emission used. For PN(497)'s, excitation was at 450 nm and emission spectra were recorded from 475 nm to 620 nm in PBS and maximum emission used. Absorbance of each probe was adjusted less than 0.1. Measurements were made in triplicate and are expressed as mean±SD.

Data set [3] deals with HT-29, a human colon carcinoma cell line. Description: PN and peptide binding to cells (non-specific binding, FACS). Type of data set: cell-based. The following applies: HT-29 cells; for Cell NSB (percent of cells with fluorescence higher than unstained cell): 30 min at 37° C., FACS. As to the method:
HT-29, a human colon carcinoma cell line, was from the American Tissue Culture Collection and maintained according to their instructions. Cells were seeded on 24-well plates at 5×10^5 cells/well in culture medium (RPMI 1640 with 10% FBS) the day before the assay. The day of assay, medium was removed, wells rinsed twice with DPBS (+Ca, +Mg), and 100 μl of 2% FBS/DPBS (+Ca, +Mg) added. 100 μL of Nanoprobes (2 μM) in DPBS (+Ca, +Mg) was added to cells and incubated for 30 min at 37° C. (Probe concentrations were determined spectrophotometrically (783 nm, extinction coefficient of 314 471 cm^−1 M^−1 for IR-783; 497 nm, extinction coefficient of 68 000 cm^−1 M^−1 for Fluorescein; 545 nm, extinction coefficient of 150 000 cm^−1 M^−1 for Cy3). Cells were detached by Trypsin/EDTA and assayed for fluorescence by FACS (BD 7 laser LSR2 for nanoprobes with IR-783; BD 3 laser LSR2 for nanoprobes with Fluorescein or Cy3).

Data set [4] can be described thus: Probe volume determination by FPLC (Superdex 75, globular protein standards). Type of data set: physicochemical. The following applies: Table 3A, tetrapeptides. As to the method: Size (volume) was determined by FPLC using an ÄKTA Purifier 10 and Superdex™ 75 10/300 GL column (GE Healthcare Lifesciences) with a running buffer of 0.05 M sodium phosphate, 0.15 M NaCl (0.1% Tween, pH 7.2) and flow rate of 0.5 ml/min. The protein standards (Gel Filtration Calibration Kit LMW, code no. 28-4038-41, GE Healthcare) (0.3 mg/ml, mixture of Aprotinin, Ribonuclease A, Ovalbumin, and Conalbumin) and Blue Dextran 2000 were used. To obtain volumes, Mr (apparent molecular weight based on size exclusion retention) was plotted versus Kav. Kav=(Ve−Vo)/[…], Vt=total volume, Ve=elution volume, Vo=void volume.

Where [5] appears, read: Table 3A, CyAL5.5 tetrapeptides.
Setting [6] is: Table 3C, proposed Example 4 compounds.

Consider 5 kDa PEG-Cys(IR-783)-OH, for which the “Molecular Volume” value in data set [1] is listed as over 20 kDa.
With `CC1(C)C(/C=C/C=C/C=C/C=C2/N(CCCCS(=O)(=O)O)c3ccc4ccccc4c3C2(C)C)=[N+](CCCCS(=O)(=O)O)c2ccc3ccccc3c21` [ICG, Indocyanine green, reference compound], in data set [2] (Table 3B, IR-783 dipeptides), the “Quantum Yield” value amounted to 0.041.
As to (DOTA)Lys(PEG5K)-Cys(Cy3) [PN(545)4.3], in data set [1], the diameter is reported as 4.3 nm and the “Volume FPLC” value stood at 35 kDa. The “Quant. Yield” value in data set [2] was determined as 0.59. For the same compound, the “Cell NSB (percent of cells with fluorescence higher than unstained cell)” value in data set [3] is reported as 31%.
The matching figures for (DOTA)Lys(PEG5K)-Cys(FI) [PN(497)4.3]: 4.3 nm, 35 kDa, 0.59 and 0.2%.
On to (DOTA)Lys(PEG30K)-Cys(FI) [PN(497)10.0], for which the “Volume FPLC” value in data set [1] is 435 kDa. Also, in data set [2], the “Quant. Yield” value is 0.60. Further, in data set [3], the “Cell NSB (percent of cells with fluorescence higher than unstained cell)” value amounted to 0.1%.
For “(DOTA)Lys(PEG40K)-Cys(IR-783) [PN(783)11.7]”, in data set [1], the “Molecular Volume FPLC” value is 690 kDa, the “Volume FPLC (diameter)” value turned out to be 11.7 nm and the “Volume FPLC” value was determined as 690 kDa. Also, the “Quantum Yield” value in data set [2] (Table 3B, IR-783 dipeptides) is given as 0.18. The “Quant. Yield” value in data set [2] worked out at 0.16.
With (DOTA)Lys-Cys(Cy3), the “Volume FPLC” value in data set [1] came out at 0.6 kDa. In data set [2], the “Quant. Yield” value came out at 0.32. Moreover, in data set [3], the “binding to cells (FACS, FIG. 30)” value is recorded as “binds to cells” and the “Cell NSB (percent of cells with fluorescence higher than unstained cell)” value came out at 98%.
Turning to “(DOTA)Lys-Cys(Fluorescein) [(DOTA)Lys-Cys(FI)]”, the “Quant. Yield” value in data set [2] is 0.50. In addition, in data set [3], the “binding to cells (FACS, FIG. 30)” value is reported as “binds cells very weakly” and the “Cell NSB (percent of cells with fluorescence higher than unstained cell)” value amounted to 0.4%.
On to (DOTA)Lys-Cys(IR-783), for which, in data set [1], the diameter is on record as 1.1 nm, the “Molecular Volume FPLC” value worked out at 0.600 kDa, the “Volume FPLC (diameter)” value came out at 1.10 nm and the “Volume FPLC” value came to 0.600 kDa. In data set [2] (Table 3B, IR-783 dipeptides), the “Quantum Yield” value is reported as 0.053. For the same compound, the “Quant. Yield” value in data set [2] is 0.053. Moreover, in data set [3], the “binding to cells (FACS, FIG. 30)” value was “binds cells” and the “Cell NSB (percent of cells with fluorescence higher than unstained cell)” value is 95%.
Consider “DOTA-Lys(CyAL5.5)-Lys(5 kDa PEG)- βAla -Lys(N3)-NH2 [Compound 5b]”, for which, in data set [4], the “Molecular Volume” value is recorded as under 1 kDa. For the same compound, the “Quantum Yield” value in data set [2] (setting [5]) stood at 0.17.
On to “DOTA-Lys(CyAL5.5)-Lys(NH2)-β-Ala-Lys(N3) [Compound 5a]”, for which the “Molecular Volume” value in data set [4] was under 1 kDa. The “Quantum Yield” value in data set [2] (setting [5]) was 0.061.
Regarding “DOTA-Lys(CyAL5.5)-Lys(NH2)-β-Ala-Lys(N3-DBCO-PEG4-cRGD)-NH2 [Compound 6a]”, in data set [4], the “Molecular Volume” value is given as under 1 kDa. Further, in data set [2] (setting [5]), the “Quantum Yield” value stood at 0.082.
The matching figures for “DOTA-Lys(CyAL5.5)-Lys- βala -Lys(sPEG-RAD) [Compound 6b]”: under 1 kDa and 0.081.
Take DOTA-Lys(PEG 40 kDa)-Cys(Fl)-NH2: the “Molecular Volume” value in data set [1] was determined as 690 kDa. In addition, the “Quantum Yield” value in data set [2] (setting [6]) was determined as 0.60.
As to NH2-Cys(IR-783)-OH, in data set [1], the “Molecular Volume” value is reported as under 2 kDa. Also, the “Quantum Yield” value in data set [2] (setting [6]) was under 0.10.
